From patent publication US20220387578A1 come the findings set out here.

Where a chain is given by its changes, count along the chain named. Names may count otherwise.

In assay [1] the target is H1 HA A/Solomon Islands/03/2006 (H1N1), recombinant soluble trimer (influenza A virus).
Assay [2] addresses H1 HA A/Texas/36/1991 (H1N1), recombinant soluble trimer (influenza A virus).
The target of assay [3] is H3 HA A/Texas/50/2012, recombinant soluble trimer (influenza A virus).

B1: rFluA-20 heavy chain mutant Y34A (antibody, V domains shown)
VH: QVQLQESGPGLVKPSETLSLTCSVSGVSVTSDIAYWTWIRQPPGKGLEWIGYIFYNGDTNYNPSLKSRVTMSIDTSKNEFSLRLTSVTAADTAVYFCARGTEDLGYCSSGSCPNHWGQGTLVTVSS
VL: DIQMTQSPSSLSASIGDRVTITCRPSQNIRSFLNWFQHKPGKAPKLLIYAASNLQSGVPSRFSGSGSGTEFTLTIRSLQPEDFATYYCQQSYNTPPTFGQGTKVEIK
With B1, the figures for the EC50 in assay [1], in assay [2] and in assay [3] were 0.04 µg/mL, 0.05 µg/mL and 0.16 µg/mL, respectively.

B2: rFluA-20 heavy chain mutant T96A (antibody, V domains shown)
VH: B1 VH with A34Y, T101A
VL: B1 VL
Consider B2, for which the EC50 in assay [1] was determined as 0.03 µg/mL; in assay [2], 0.04 µg/mL; in assay [3], 0.07 µg/mL.

B3: rFluA-20 heavy chain mutant E97A (antibody, V domains shown)
VH: B1 VH with A34Y, E102A
VL: B1 VL
Consider B3, for which the EC50 in assay [1] was 0.07 µg/mL; in assay [2], 0.05 µg/mL; in assay [3], 0.18 µg/mL.

What is called EC50 is the concentration that produces a half-maximal response.
